Target: T1, human GPC-3 on cells (SK Hep1:hGPC-3 transfectants; HepG2) (human, UniProt P51654 25-554)
T1 construct: whole, on cells; The same molecule is used for the transfected SK-Hep1 cells and the GPC-3 positive HepG2 cells; The cell line is named under assay; also called Glypican-3
Assay: confocal microscopy, cell surface staining of SK Hep1:hGPC-3 cells
Protocol: Incubation of SK Hep1:hGPC-3 and SK Hep1:EV (empty vector control) and HepG2 cells with hNGAL muteins (SEQ ID NOs: 1-6) and staining of GPC-3 and bound hNGAL muteins followed by confocal microscopy. Cells (SK Hep1:GPC-3, SK Hep1:EV or HepG2) were grown at 37° in a humidified CO2 incubator for 24 hrs and exposed to hNGAL muteins 1.0 ug/mL, fixed (4% PFA in PBS) and stained with a rabbit anti-lipocalin antibody overnight at 4° C. prior to addition of secondary donkey anti-rabbit AF568 antibody. For nuclei staining, cells were incubated in 300 uL of DAPI solution (1:50000 DAPI in PBS). Slides were viewed using Leica TCS SP5 DNI6000 CS Confocal Microscope (Leica) using the following lasers. […] Results clearly indicate binding of ail hNGAL muteins (SEQ ID NOs: 2-6) to the cell lines expressing GPC-3 (presence of GPC-3 on the surface of the cells was also confirmed by confocal imaging) and lack of binding of such hNGAL muteins to control cell line (SK-Hep1:EV).

T1 sequence (P51654 25-554 limits assumed): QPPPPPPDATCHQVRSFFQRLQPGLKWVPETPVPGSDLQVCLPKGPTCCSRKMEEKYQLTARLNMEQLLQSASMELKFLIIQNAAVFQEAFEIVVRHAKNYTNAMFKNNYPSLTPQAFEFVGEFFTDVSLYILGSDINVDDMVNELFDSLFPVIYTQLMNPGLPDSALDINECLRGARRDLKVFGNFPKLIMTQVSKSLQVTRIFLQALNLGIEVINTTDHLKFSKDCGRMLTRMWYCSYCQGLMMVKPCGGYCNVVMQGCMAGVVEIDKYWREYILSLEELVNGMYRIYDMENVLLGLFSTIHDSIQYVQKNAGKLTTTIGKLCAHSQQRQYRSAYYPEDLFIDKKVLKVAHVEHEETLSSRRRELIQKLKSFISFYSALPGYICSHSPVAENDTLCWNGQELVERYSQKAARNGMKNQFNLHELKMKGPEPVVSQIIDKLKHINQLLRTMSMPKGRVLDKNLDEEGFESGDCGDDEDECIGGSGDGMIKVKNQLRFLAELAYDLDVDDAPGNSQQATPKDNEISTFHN

B1: lipocalin control (SEQ ID NO: 1) (other)
chain: QDSTSDLIPAPPLSKVPLQQNFQDNQFHGKWYVVGLAGNAILREDKDPQKMYATIYELKEDKSYNVTSVLFRKKKCDYWIRTFVPGSQPGEFTLGNIKSYPGLTSYLVRVVSTNYNQHAMVFFKKVSQNREYFKITLYGRTKELTSELKENFIRFSKSLGLPENHIVFPVPIDQCIDG
notes: also called mature human Lipocalin 2; mature hNGAL
  binding result: no binding (tested: 1.0 ug/mL)
